Results reported in paper PMC5130018 (2016).

B1: WH-biotin (peptide WH with GGGK-biotin at the carboxyl terminal) [modified: biotin on the C-terminal lysine (GGGK-biotin); biotin on the C-terminal lysine (GGGK-biotin)] / mouse Clec9a expressed on HEK-293T cells (pIRES2-EGFP-mClec9a) … (parent complex)
chain 1: WPRFHSSVFHTHGGGK
chain 2: MHAEEIYTSLQWDIPTSEASQKCQSPSKCSGAWCVVTMISCVVCMGLLATSIFLGIKFFQVSSLVLEQQERLIQQDTALVNLTQWQRKYTLEYCQALLQRSLHSGTDASTGPVLLTSPQMVPQTLDSKETGSDCSPCPHNWIQNGKSCYYVFERWEMWNISKKSCLKEGASLFQIDSKEEMEFISSIGKLKGGNKYWVGVFQDGISGSWFWEDGSSPLSDLLPAERQRSAGQICGYLKDSTLISDKCDSWKYFICEKKAFGSCI

Variants of: B1
Test: flow cytometry on cells; parent: 49.6

response	Variant
45.4 % of cells in upper-right quadrant (SA+ EGFP+)	chain 2 MHAEEIYTSLQWDIPTSEASQKCQSPSKCSGAWCVVTMISCVVCMGLLATSIFLGIKFFQVSSLVLEQQERLIQQDTALVNLTQWQRKYTLEYCQALLQRSLHSGTDASTGPVLLTSPQMVPQTLDSKETGSDCSPCPHNWIQNGKSCYYVFERWEMWNISKKSCLKEGASLFQIDSKEEMEFISSIGKLKGGNKYWVGVFQDGISGSWFWEDGSSPLSDLLPAERQRSAGQICGYLKDSTLISDKCDSWKAFICEKKAFGSCI [chain 2 Y252A]
7.85 % of cells in upper-right quadrant (SA+ EGFP+)	chain 2 MHAEEIYTSLQWDIPTSEASQKCQSPSKCSGAWCVVTMISCVVCMGLLATSIFLGIKFFQVSSLVLEQQERLIQQDTALVNLTQWQRKYTLEYCQALLQRSLHSGTDASTGPVLLTSPQMVPQTLDSKETGSDCSPCPHNWIQNGKSCYYVFERWEMWNISKKSCLKEGASLFQIDSKEEMEFISSIGKLKGGNKYWVGVFQDGISGSWFWEDGSSPLSDLLPAERQRSAGQICGYLKDSTLISDKCDSAKYFICEKKAFGSCI [chain 2 W250A]
52.5 % of cells in upper-right quadrant (SA+ EGFP+)	chain 2 MHAEEIYTSLQWDIPTSEASQKCQSPSKCSGAWCVVTMISCVVCMGLLATSIFLGIKFFQVSSLVLEQQERLIQQDTALVNLTQWQRKYTLEYCQALLQRSLHSGTDASTGPVLLTSPQMVPQTLDSKETGSDCSPCPHNWIQNGKSCYYVFERAEMWNISKKSCLKEGASLFQIDSKEEMEFISSIGKLKGGNKYWVGVFQDGISGSWFWEDGSSPLSDLLPAERQRSAGQICGYLKDSTLISDKCDSWKYFICEKKAFGSCI [chain 2 W155A]

Further lines, the variant ahead of its results:

Variant	response
chain 2 MHAEEIYTSLQWDIPTSEASQKCQSPSKCSGAWCVVTMISCVVCMGLLATSIFLGIKFFQVSSLVLEQQERLIQQDTALVNLTQWQRKYTLEYCQALLQRSLHSGTDASTGPVLLTSPQMVPQTLDSKETGSDCSPCPHNWIQNGKSCYYVFERWEMWNISKKSCLKEGASLFQIDSKEEMEFISSIGKLKGGNKYWVGVFQDGISGSWFWEDGSSPLSDLLPAERQRSAGQICGYLKDSTLISDKCASWKYFICEKKAFGSCI [chain 2 D248A]	11.3 % of cells in upper-right quadrant (SA+ EGFP+)
chain 2 MHAEEIYTSLQWDIPTSEASQKCQSPSKCSGAWCVVTMISCVVCMGLLATSIFLGIKFFQVSSLVLEQQERLIQQDTALVNLTQWQRKYTLEYCQALLQRSLHSGTDASTGPVLLTSPQMVPQTLDSKETGSDCSPCPHNWIQNGKSCYYVFERWEAWNISKKSCLKEGASLFQIDSKEEMEFISSIGKLKGGNKYWVGVFQDGISGSWFWEDGSSPLSDLLPAERQRSAGQICGYLKDSTLISDKCDSWKYFICEKKAFGSCI [chain 2 M157A]	74.2 % of cells in upper-right quadrant (SA+ EGFP+)
chain 2 MHAEEIYTSLQWDIPTSEASQKCQSPSKCSGAWCVVTMISCVVCMGLLATSIFLGIKFFQVSSLVLEQQERLIQQDTALVNLTQWQRKYTLEYCQALLQRSLHSGTDASTGPVLLTSPQMVPQTLDSKETGSDCSPCPHNWIQNGKSCYYVFERWEMWNASKKSCLKEGASLFQIDSKEEMEFISSIGKLKGGNKYWVGVFQDGISGSWFWEDGSSPLSDLLPAERQRSAGQICGYLKDSTLISDKCDSWKYFICEKKAFGSCI [chain 2 I160A]	50.6 % of cells in upper-right quadrant (SA+ EGFP+)
chain 2 MHAEEIYTSLQWDIPTSEASQKCQSPSKCSGAWCVVTMISCVVCMGLLATSIFLGIKFFQVSSLVLEQQERLIQQDTALVNLTQWQRKYTLEYCQALLQRSLHSGTDASTGPVLLTSPQMVPQTLDSKETGSDCSPCPHNWIQNGKSCYYVFEAWEMWNISKKSCLKEGASLFQIDSKEEMEFISSIGKLKGGNKYWVGVFQDGISGSWFWEDGSSPLSDLLPAERQRSAGQICGYLKDSTLISDKCDSWKYFICEKKAFGSCI [chain 2 R154A]	69.6 % of cells in upper-right quadrant (SA+ EGFP+)
